Measured values from patent US20210301026A1 (ULTRAHUMAN TWELVE, published 2021).

T1: monomeric cynomolgus monkey CSF1R ectodomain protein (cynomolgus monkey, UniProt P07333 20-517 (human entry))
T1 construct: also called monomeric cyno CSF1R; Cyno CSF1R
T1 chain: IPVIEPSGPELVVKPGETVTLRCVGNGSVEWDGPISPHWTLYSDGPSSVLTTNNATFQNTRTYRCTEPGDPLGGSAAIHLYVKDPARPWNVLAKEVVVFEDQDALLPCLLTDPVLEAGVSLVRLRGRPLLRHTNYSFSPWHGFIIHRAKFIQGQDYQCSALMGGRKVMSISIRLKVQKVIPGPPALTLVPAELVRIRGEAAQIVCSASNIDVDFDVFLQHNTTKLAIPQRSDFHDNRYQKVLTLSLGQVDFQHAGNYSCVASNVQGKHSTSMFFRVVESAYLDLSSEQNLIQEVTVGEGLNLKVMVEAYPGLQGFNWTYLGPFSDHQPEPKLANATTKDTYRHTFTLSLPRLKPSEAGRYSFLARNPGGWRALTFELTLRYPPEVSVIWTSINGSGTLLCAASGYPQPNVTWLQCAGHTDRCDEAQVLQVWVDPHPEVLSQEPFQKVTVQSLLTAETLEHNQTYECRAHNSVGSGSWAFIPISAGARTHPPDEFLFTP


Assays:
[1] = target: T1, monomeric cynomolgus monkey CSF1R …; experiment: SPR Biacore, IgG captured, monomeric CSF1R analyte
Protocol: (§1) Affinity (KD) of purified IgGs was determined via SPR with antigen in-solution on a Biacore 3000 (GE). A mouse anti-human antibody (CH1 specific) was immobilized on a CM5 Sensor Chip to a level of 2000 RU in acetate buffer at pH 4.5 using amine coupling following the Wizard instructions for two channels. One channel was used for background signal correction. The standard running buffer HBS-EP pH 7.4 was used. Regeneration was performed with a single injection of 10 μl of 10 mM Glycine at pH 1.5 at 20 μl/minute. IgG samples were injected for 2 minutes at 50 nM at 30 μl/min followed by and off-rate of 60 seconds. The monomeric ectodomain protein (human CSF1R or cynomolgus monkey CSF1R) was injected in two fold serial dilutions from 100 nM down to 3.1 nM, for 2 minutes at 30 μl/min followed by an off-rate of 300 seconds. The obtained sensorgrams were analysed using the Biacore 3000 evaluation (BIAevaluation) software. The KD was calculated by simultaneous fitting of the association and dissociation phases to a 1:1 Langmuir binding model.

[2] = target: T2, monomeric human CSF1R ectodomain protein (human, UniProt P07333 20-517); experiment: SPR Biacore, IgG captured, monomeric CSF1R analyte
T2 construct: also called biotinylated monomeric human CSF1R
Protocol: as §1

human insulin = target: T3, human insulin (human, UniProt P01308 25-54; P01308 90-110, limits assumed); experiment: ELISA on human insulin (development risk, polyreactivity), binding score
T3 construct: Coated antigen of the polyreactivity ('PK-risk indicator') ELISA
T3 sequence (P01308 25-54 limits assumed, chain 1 of 2): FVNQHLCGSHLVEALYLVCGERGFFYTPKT
T3 sequence (P01308 90-110 limits assumed, chain 2 of 2): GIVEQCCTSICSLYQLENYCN

| Kd [1] | koff [1] | kon [1] | Kd [2] | koff [2] | kon [2] | binding result (human insulin) | fold of the affinity of hu0301 [1] | fold of the affinity of hu0301 [2] | Binder |
| --- | --- | --- | --- | --- | --- | --- | --- | --- | --- |
| 1.07 nM | 0.000754 s⁻¹ | 705000 M⁻¹ s⁻¹ | 0.624 nM | 0.00088 s⁻¹ | 1.41e+06 M⁻¹ s⁻¹ | – | – | – | MH10 (antibody, human IgG4, V domains shown, Deimmunized MH5 derivative, human IgG4(S228P)/Ckappa IgG) VH: QVQLVQSGAEVKKPGSSVKVSCKASGYTFSSNYMIWVRQAPGQGLEWMGDINPYNGGANYAQKFQGRVTITADESTSTAYMELSSLRSEDTAVYYCAREGPYFSNLYVMDYWGQGTLVTVSS VL: EIVLTQSPATLSLSPGERATLSCRASQSVSYEGENYLNWYQQKPGQAPRSAIYAASNRATGIPARFSGSGSGTDFTLTISSPEPEDFAVYYCQLSNEDLLTFGGGTKVEIK |
| 0.777 nM | 0.000833 s⁻¹ | 1.07e+06 M⁻¹ s⁻¹ | 0.397 nM | 0.000976 s⁻¹ | 2.46e+06 M⁻¹ s⁻¹ | – | ≤ 2 fold | ≤ 2 fold | MH24 (antibody, human IgG4, V domains shown, Deimmunized MH5 derivative, human IgG4(S228P)/Ckappa IgG) VH: QVQLVQSGAEVKKPGSSVKVSCKASGYTFSSHYMIWVRQAPGQGLEWMGDINPYNGGANYAQKFQGRVTITADESTSTAYMELSSLRSEDTAVYYCAREGPYFSNLYVMDYWGQGTLVTVSS VL: EIVLTQSPATLSLSPGERATLSCRASQSVSYEGENYLNWYQQKPGQAPRSLIYAASDRATGIPARFSGSGSGTDFTLTISSPEPEDFAVYYCQLSNEDLLTFGGGTKVEIK |
| 1.24 nM | 0.00134 s⁻¹ | 1.08e+06 M⁻¹ s⁻¹ | 0.709 nM | 0.00177 s⁻¹ | 2.49e+06 M⁻¹ s⁻¹ | no binding | – | – | MH20 (antibody, human IgG4, V domains shown, Deimmunized MH5 derivative, human IgG4(S228P)/Ckappa IgG) VH: QVQLVQSGAEVKKPGSSVKVSCKASGYTFSSSYMIWVRQAPGQGLEWMGDINPYNGGANYAQKFQGRVTITADESTSTAYMELSSLRSEDTAVYYCAREGPYFSNLYVMDYWGQGTLVTVSS VL: EIVLTQSPATLSLSPGERATLSCRASQSVSYEGENYLNWYQQKPGQAPRSLIYAASDRATGIPARFSGSGSGTDFTLTISSPEPEDFAVYYCQLSNEDLLTFGGGTKVEIK |
| 1.84 nM | 0.00137 s⁻¹ | 746000 M⁻¹ s⁻¹ | 1.23 nM | 0.00189 s⁻¹ | 1.54e+06 M⁻¹ s⁻¹ | no binding | – | – | MH21 (antibody, human IgG4, V domains shown, Deimmunized MH5 derivative, human IgG4(S228P)/Ckappa IgG) VH: QVQLVQSGAEVKKPGSSVKVSCKASGYTFSSSYMIWVRQAPGQGLEWMGDINPYNGGANYAQKFQGRVTITADESTSTAYMELSSLRSEDTAVYYCAREGPYFSNLYVMDYWGQGTLVTVSS VL: EIVLTQSPATLSLSPGERATLSCRASQSVSYEGENYLNWYQQKPGQAPRLLIYAASNRATGIPARFSGSGSGTDFTLTISSPEPEDFAVYYCQLSNEDLLTFGGGTKVEIK |
| – | – | – | – | – | – | no binding | – | – | MH37 (antibody, human IgG4, V domains shown, Deimmunized MH5 derivative, human IgG4(S228P)/Ckappa IgG) VH: QVQLVQSGAEVKKPGSSVKVSCKASGYTFSSSYMIWVRQAPGQGLEWMGDINPYNGGANYAQKFQGRVTITADESTSTAYMELSSLRSEDTAVYYCAREGPYFSNLYVMDYWGRGTLVTVSS VL: EIVLTQSPATLSLSPGERATLSCRASQSVSYEGENYLNWYQQKPGQAPRLLIYAASNRATGIPARFSGSGSGTDFTLTISSPEPEDFAVYYCQLSNEDLLTFGGGTKVEIK |

The next lines start with the binder.

| Binder | Kd [1] | koff [1] | kon [1] | Kd [2] | koff [2] | kon [2] | binding result (human insulin) | fold of the affinity of hu0301 [1] | fold of the affinity of hu0301 [2] |
| --- | --- | --- | --- | --- | --- | --- | --- | --- | --- |
| MH16 (antibody, human IgG4, V domains shown, Deimmunized MH5 derivative, human IgG4(S228P)/Ckappa IgG; also called mAb-5) VH: QVQLVQSGAEVKKPGSSVKVSCKASGYTFSSAYMIWVRQAPGQGLEWMGDINPYNGGANYAQKFQGRVTITADESTSTAYMELSSLRSEDTAVYYCAREGPYFSNLYVMDYWGQGTLVTVSS VL: EIVLTQSPATLSLSPGERATLSCRASQSVSYEGENYLNWYQQKPGQAPRSLIYAASDRATGIPARFSGSGSGTDFTLTISSPEPEDFAVYYCQLSNEDLLTFGGGTKVEIK | 0.785 nM | 0.00075 s⁻¹ | 956000 M⁻¹ s⁻¹ | 0.444 nM | 0.000897 s⁻¹ | 2.02e+06 M⁻¹ s⁻¹ | no binding | ≤ 2 fold | ≤ 2 fold |
| MH12 (antibody, human IgG4, V domains shown, Deimmunized MH5 derivative, human IgG4(S228P)/Ckappa IgG; also called mAb-4) VH: QVQLVQSGAEVKKPGSSVKVSCKASGYTFSSNYMIWVRQAPGQGLEWMGDINPYNGGANYAQKFQGRVTITADESTSTAYMELSSLRSEDTAVYYCAREGPYFSNLYVMDYWGQGTLVTVSS VL: EIVLTQSPATLSLSPGERATLSCRASQSVSYEGENYLNWYQQKPGQAPRSLIYAASDRATGIPARFSGSGSGTDFTLTISSPEPEDFAVYYCQLSNEDLLTFGGGTKVEIK | 0.557 nM | 0.000726 s⁻¹ | 1.3e+06 M⁻¹ s⁻¹ | 0.342 nM | 0.000832 s⁻¹ | 2.43e+06 M⁻¹ s⁻¹ | no binding | ≤ 2 fold | ≤ 2 fold |
| MH41 (antibody, human IgG4, V domains shown, Deimmunized MH5 derivative, human IgG4(S228P)/Ckappa IgG; also called MN41) VH: QVQLVQSGAEVKKPGSSVKVSCKASGYTFSSHYMIWVRQAPGQGLEWMGDINPYNGGANYAQKFQGRVTITADESTSTAYMELSSLRSEDTAVYYCAREGPYFSNLYVMDYWGRGTLVTVSS VL: EIVLTQSPATLSLSPGERATLSCRASQSVSYEGENYLNWYQQKPGQAPRLLIYAASNRATGIPARFSGSGSGTDFTLTISSPEPEDFAVYYCQLSNEDLLTFGGGTKVEIK | 1.46 nM | 0.000972 s⁻¹ | 666000 M⁻¹ s⁻¹ | 0.851 nM | 0.00109 s⁻¹ | 1.28e+06 M⁻¹ s⁻¹ | no binding | – | – |
| MH32 (antibody, human IgG4, V domains shown, Deimmunized MH5 derivative, human IgG4(S228P)/Ckappa IgG; also called MN32) VH: QVQLVQSGAEVKKPGSSVKVSCKASGYTFSSAYMIWVRQAPGQGLEWMGDINPYNGGANYAQKFQGRVTITADESTSTAYMELSSLRSEDTAVYYCAREGPYFSNLYVMDYWGRGTLVTVSS VL: EIVLTQSPATLSLSPGERATLSCRASQSVSYEGENYLNWYQQKPGQAPRSLIYAASDRATGIPARFSGSGSGTDFTLTISSPEPEDFAVYYCQLSNEDLLTFGGGTKVEIK | 0.979 nM | 0.00103 s⁻¹ | 1.05e+06 M⁻¹ s⁻¹ | 0.62 nM | 0.00127 s⁻¹ | 2.04e+06 M⁻¹ s⁻¹ | – | – | – |
| MH29 (antibody, human IgG4, V domains shown, Deimmunized MH5 derivative, human IgG4(S228P)/Ckappa IgG) VH: QVQLVQSGAEVKKPGSSVKVSCKASGYTFSSNYMIWVRQAPGQGLEWMGDINPYNGGANYAQKFQGRVTITADESTSTAYMELSSLRSEDTAVYYCAREGPYFSNLYVMDYWGRGTLVTVSS VL: EIVLTQSPATLSLSPGERATLSCRASQSVSYEGENYLNWYQQKPGQAPRLLIYAASNRATGIPARFSGSGSGTDFTLTISSPEPEDFAVYYCQLSNEDLLTFGGGTKVEIK | 0.913 nM | 0.000813 s⁻¹ | 891000 M⁻¹ s⁻¹ | 0.562 nM | 0.000961 s⁻¹ | 1.71e+06 M⁻¹ s⁻¹ | no binding | – | – |
| MH40 (antibody, human IgG4, V domains shown, Deimmunized MH5 derivative, human IgG4(S228P)/Ckappa IgG) VH: QVQLVQSGAEVKKPGSSVKVSCKASGYTFSSHYMIWVRQAPGQGLEWMGDINPYNGGANYAQKFQGRVTITADESTSTAYMELSSLRSEDTAVYYCAREGPYFSNLYVMDYWGRGTLVTVSS VL: EIVLTQSPATLSLSPGERATLSCRASQSVSYEGENYLNWYQQKPGQAPRSLIYAASDRATGIPARFSGSGSGTDFTLTISSPEPEDFAVYYCQLSNEDLLTFGGGTKVEIK | 0.948 nM | 0.00101 s⁻¹ | 1.06e+06 M⁻¹ s⁻¹ | 0.553 nM | 0.00113 s⁻¹ | 2.05e+06 M⁻¹ s⁻¹ | no binding | – | – |
| MH25 (antibody, human IgG4, V domains shown, Deimmunized MH5 derivative, human IgG4(S228P)/Ckappa IgG) VH: QVQLVQSGAEVKKPGSSVKVSCKASGYTFSSHYMIWVRQAPGQGLEWMGDINPYNGGANYAQKFQGRVTITADESTSTAYMELSSLRSEDTAVYYCAREGPYFSNLYVMDYWGQGTLVTVSS VL: EIVLTQSPATLSLSPGERATLSCRASQSVSYEGENYLNWYQQKPGQAPRLLIYAASNRATGIPARFSGSGSGTDFTLTISSPEPEDFAVYYCQLSNEDLLTFGGGTKVEIK | 1.03 nM | 0.000758 s⁻¹ | 733000 M⁻¹ s⁻¹ | 0.634 nM | 0.000921 s⁻¹ | 1.45e+06 M⁻¹ s⁻¹ | no binding | – | – |
| MH11 (antibody, human IgG4, V domains shown, Deimmunized MH5 derivative, human IgG4(S228P)/Ckappa IgG) VH: QVQLVQSGAEVKKPGSSVKVSCKASGYTFSSNYMIWVRQAPGQGLEWMGDINPYNGGANYAQKFQGRVTITADESTSTAYMELSSLRSEDTAVYYCAREGPYFSNLYVMDYWGQGTLVTVSS VL: EIVLTQSPATLSLSPGERATLSCRASQSVSYEGENYLNWYQQKPGQAPRAAIYAASNRATGIPARFSGSGSGTDFTLTISSPEPEDFAVYYCQLSNEDLLTFGGGTKVEIK | 1.29 nM | 0.00103 s⁻¹ | 802000 M⁻¹ s⁻¹ | 0.776 nM | 0.00119 s⁻¹ | 1.53e+06 M⁻¹ s⁻¹ | – | – | – |
